Experimental data reported in the supplement of paper PMC11246515.
± gives the standard deviation of the averaged measurements.

Assay: total protein half-life in vivo (active degradation + dilution); higher = more stable protein
[1] = E. coli NCM3722 delta-clpP delta-lon delta-hslV, growth: N-lim chemostat, doubling time 6 h
[2] = E. coli NCM3722 delta-clpP, growth: N-lim chemostat, doubling time 6 h
[3] = E. coli NCM3722 delta-hslV, growth: N-lim chemostat, doubling time 6 h
[4] = E. coli NCM3722 delta-lon, growth: N-lim chemostat, doubling time 6 h
[5] = E. coli NCM3722 delta-smpB, growth: N-lim chemostat, doubling time 6 h
[6] = wild type E. coli NCM3722, growth: C-lim chemostat, doubling time 3 h
[7] = wild type E. coli NCM3722, growth: C-lim chemostat, doubling time 12 h
[8] = wild type E. coli NCM3722, growth: N-lim chemostat, doubling time 6 h
[9] = wild type E. coli NCM3722, growth: N-lim chemostat, doubling time 12 h
[10] = wild type E. coli NCM3722, growth: P-lim chemostat, doubling time 6 h
[11] = wild type E. coli NCM3722, growth: P-lim chemostat, doubling time 12 h
[12] = wild type E. coli NCM3722, growth: C-lim chemostat, doubling time 6 h

Sequence | total protein half-life in vivo [1] | total protein half-life in vivo [2] | total protein half-life in vivo [3] | total protein half-life in vivo [4] | total protein half-life in vivo [5] | total protein half-life in vivo [6] | total protein half-life in vivo [7] | total protein half-life in vivo [8] | total protein half-life in vivo [9] | total protein half-life in vivo [10] | total protein half-life in vivo [11] | total protein half-life in vivo [12]
MLEILYQDEWLVAVNKPSGWLVHRSWLDRDEKVVVMQTVRDQIGQHVFTAHRLDRPTSGVLLMGLSSEAGRLLAQQFEQHQIQKRYHAIVRGWLMEEAVLDYPLVEELDKIADKFAREDKGPQPAVTHYRGLATVEMPVATGRYPTTRYGLVELEPKTGRKHQLRRHLAHLRHPIIGDSKHGDLRQNRSGAEHFGLQRLMLHASQLSLTHPFTGEPLTIHAGLDDTWMQALSQFGWRGLLPENERVEFSAPSGQDGEISS [P0AA41] | 4.78 ± 0.18 h | 4.49 ± 0.16 h | 4.87 ± 0.88 h | 4.49 h | 4.34 ± 0.19 h | 3 ± 0.28 h | 11.8 ± 0.17 h | 5.27 ± 1.3 h | 6.98 h | 5.28 ± 0.23 h | 10.91 ± 0.044 h | –
MQSWYLLYCKRGQLQRAQEHLERQAVNCLAPMITLEKIVRGKRTAVSEPLFPNYLFVEFDPEVIHTTTINATRGVSHFVRFGASPAIVPSAVIHQLSVYKPKDIVDPATPYPGDKVIITEGAFEGFQAIFTEPDGEARSMLLLNLINKEIKHSVKNTEFRKL [P0AFW0] | 4.25 ± 0.76 h | 3.41 ± 0.17 h | 3.23 h | 3.931 ± 0.015 h | 2.52 ± 0.22 h | 3.08 ± 0.73 h | 6.64 ± 1.1 h | 3.18 h | 5.43 ± 1.4 h | 4.35 ± 0.79 h | 7.71 h | 5.24 ± 1.7 h
MRYPVDVYTGKIQAYPEGKPSAIAKIQVDGELMLTELGLEGDEQAEKKVHGGPDRALCHYPREHYLYWAREFPEQAELFVAPAFGENLSTDGLTESNVYMGDIFRWGEALIQVSQPRSPCYKLNYHFDISDIAQLMQNTGKVGWLYSVIAPGKVSADAPLELVSRVSDVTVQEAAAIAWHMPFDDDQYHRLLSAAGLSKSWTRTMQKRRLSGKIEDFSRRLWGK | 4.688 ± 0.014 h | 4.89 ± 0.61 h | 4.614 ± 0.023 h | 5.77 ± 0.072 h | 4.46 ± 0.23 h | 3.04 ± 0.29 h | 9.06 ± 0.23 h | 4.7 ± 0.19 h | 7.96 ± 1.1 h | 5.64 ± 0.12 h | 12 ± 0.28 h | 6.38 ± 1.3 h
MENIMNNPVIGVVMCRNRLKGHATQTLQEKYLNAIIHAGGLPIALPHALAEPSLLEQLLPKLDGIYLPGSPSNVQPHLYGENGDEPDADPGRDLLSMAIINAALERRIPIFAICRGLQELVVATGGSLHRKLCEQPELLEHREDPELPVEQQYAPSHEVQVEEGGLLSALLPECSNFWVNSLHGQGAKVVSPRLRVEARSPDGLVEAVSVINHPFALGVQWHPEWNSSEYALSRILFEGFITACQHHIAEKQRL | – | 2.93 h | – | – | – | 2.64 h | 10.5 h | – | – | – | 10.6 ± 0.45 h | –
MSESVQSNSAVLVHFTLKLDDGTTAESTRNNGKPALFRLGDASLSEGLEQHLLGLKVGDKTTFSLEPDAAFGVPSPDLIQYFSRREFMDAGEPEIGAIMLFTAMDGSEMPGVIREINGDSITVDFNHPLAGQTVHFDIEVLEIDPALEA [P0AEM0] | 4.8 h | 4.79 h | – | 5.05 h | 3.85 ± 0.14 h | 2.84 h | 9.21 ± 1.6 h | 4.44 h | 5.91 h | 5.49 ± 0.13 h | 11.6 h | 4.78 ± 0.094 h
MEALGMIETRGLVALIEASDAMVKAARVKLVGVKQIGGGLCTAMVRGDVAACKAATDAGAAAAQRIGELVSVHVIPRPHGDLEEVFPIGLKGDSSNL [P0ABF4] | 4.35 ± 0.68 h | 7.77 h | 4.24 ± 0.36 h | 4.82 ± 0.61 h | 4.98 ± 0.22 h | 2.59 ± 0.7 h | 11.5 ± 1.5 h | 4.8 ± 0.3 h | 7.48 ± 0.57 h | 5.28 ± 0.062 h | 12.1 ± 1.1 h | 5.83 ± 0.41 h
MLFTIQLIIILICLFYGARKGGIALGLLGGIGLVILVFVFHLQPGKPPVDVMLVIIAVVAASATLQASGGLDVMLQIAEKLLRRNPKYVSIVAPFVTCTLTILCGTGHVVYTILPIIYDVAIKNNIRPERPMAASSIGAQMGIIASPVSVAVVSLVAMLGNVTFDGRHLEFLDLLAITIPSTLIGILAIGIFSWFRGKDLDKDEEFQKFISVPENREYVYGDTATLLDKKLPKSNWLAMWIFLGAIAVVALLGADSDLRPSFGGKPLSMVLVIQMFMLLTGALIIILTKTNPASISKNEVFRSGMIAIVAVYGIAWMAETMFGAHMSEIQGVLGEMVKEYPWAYAIVLLLVSKFVNSQAAALAAIVPVALAIGVDPAYIVASAPACYGYYILPTYPSDLAAIQFDRSGTTHIGRFVINHSFILPGLIGVSVSCVFGWIFAAMYGFL [P0ABN9] | 7.71 h | 5.98 ± 1.5 h | 5.58 ± 0.66 h | – | – | – | – | 6.04 ± 0.11 h | 12.9 ± 1.5 h | – | > 16 h | –
MSAFKKSLLVAGVAMILSNNVFADEGHGIVKFKGEVISAPCSIKPGDEDLTVNLGEVADTVLKSDQKSLAEPFTIHLQDCMLSQGGTTYSKAKVTFTTANTMTGQSDLLKNTKETEIGGATGVGVRILDSQSGEVTLGTPVVITFNNTNSYQELNFKARMESPSKDATPGNVYAQADYKIAYE | 5.72 h | 5.47 h | 5.25 h | – | 3.96 ± 0.24 h | 1.78 h | – | – | – | – | – | –
MAQRIFTLILLLCSTSVFAGLFDAPGRSQFVPADQAFAFDFQQNQHDLNLTWQIKDGYYLYRKQIRITPEHAKIADVQLPQGVWHEDEFYGKSEIYRDRLTLPVTINQASAGATLTVTYQGCADAGFCYPPETKTVPLSEVVANNAAPQPVSVPQQEQPTAQLPFSALWALLIGIGIAFTPCVLPMYPLISGIVLGGKQRLSTARALLLTFIYVQGMALTYTALGLVVAAAGLQFQAALQHPYVLIGLAIVFTLLAMSMFGLFTLQLPSSLQTRLTLMSNRQQGGSPGGVFVMGAIAGLICSPCTTAPLSAILLYIAQSGNMWLGGGTLYLYALGMGLPLMLITVFGNRLLPKSGPWMEQVKTAFGFVILALPVFLLERVIGDVWGLRLWSALGVAFFGWAFITSLQAKRGWMRIVQIILLAAALVSVRPLQDWAFGATHTAQTQTHLNFTQIKTVDELNQALVEAKGKPVMLDLYADWCVACKEFEKYTFSDPQVQKALADTVLLQANVTANDAQDVALLKHLNVLGLPTILFFDGQGQEHPQARVTGFMDAETFSAHLRDRQP | 6.33 ± 0.17 h | 6.16 ± 0.66 h | 5.61 ± 0.96 h | 6.37 ± 0.69 h | 5.76 ± 0.13 h | – | 13.2 ± 1 h | 6.08 ± 0.72 h | 11.9 ± 0.37 h | 5.82 ± 0.19 h | 12.35 ± 0.1 h | 5.22 ± 0.15 h
MLEDLKRQVLEANLALPKHNLVTLTWGNVSAVDRERGVFVIKPSGVDYSVMTADDMVVVSIETGEVVEGTKKPSSDTPTHRLLYQAFPSIGGIVHTHSRHATIWAQAGQSIPATGTTHADYFYGTIPCTRKMTDAEINGEYEWETGNVIVETFEKQGIDAAQMPGVLVHSHGPFAWGKNAEDAVHNAIVLEEVAYMGIFCRQLAPQLPDMQQTLLDKHYLRKHGAKAYYGQ | – | – | – | – | – | – | 9.82 h | – | – | – | – | 2.27 h
MDTELLKTFLEVSRTRHFGRAAESLYLTQSAVSFRIRQLENQLGVNLFTRHRNNIRLTAAGEKLLPYAETLMSTWQAARKEVAHTSRHNEFSIGASASLWECMLNQWLGRLYQNQDAHTGLQFEARIAQRQSLVKQLHERQLDLLITTEAPKMDEFSSQLLGYFTLALYTSAPSKLKGDLNYLRLEWGPDFQQHEAGLIGADEVPILTTSSAELAQQQIAMLNGCTWLPVSWARKKGGLHTVVDSTTLSRPLYAIWLQNSDKNALIRDLLKINVLDEVY [P0A8R9] | 5.38 ± 0.37 h | 4.82 ± 0.081 h | 4.553 ± 0.02 h | – | 4.1 ± 0.12 h | 3.05 ± 0.072 h | 9.53 ± 0.73 h | 4.72 ± 0.46 h | 7.65 ± 0.25 h | 6.13 ± 0.24 h | 11.7 ± 2 h | 5.676 ± 0.025 h
MNPLKAGDIAPKFSLPDQDGEQVNLTDFQGQRVLVYFYPKAMTPGCTVQACGLRDNMDELKKAGVDVLGISTDKPEKLSRFAEKELLNFTLLSDEDHQVCEQFGVWGEKSFMGKTYDGIHRISFLIDADGKIEHVFDDFKTSNHHDVVLNWLKEHA [P0AE52] | 5.42 ± 0.21 h | 5.26 ± 0.76 h | 4.92 ± 0.074 h | 6.45 ± 1.5 h | 4.25 ± 0.079 h | 2.85 ± 0.64 h | 7.64 ± 0.72 h | 4.08 ± 0.36 h | 7.49 ± 0.41 h | 4.38 ± 0.081 h | 11 ± 0.55 h | 5.36 ± 0.065 h
MSEGWNIAVLGATGAVGEALLETLAERQFPVGEIYALARNESAGEQLRFGGKTITVQDAAEFDWTQAQLAFFVAGKEATAAWVEEATNSGCLVIDSSGLFALEPDVPLVVPEVNPFVLTDYRNRNVIAVPDSLTSQLLAALKPLIDQGGLSRISVTSLISASAQGKKAVDALAGQSAKLLNGIPIDEEDFFGRQLAFNMLPLLPDSEGSVREERRIVDEVRKILQDEGLMISASVVQAPVFYGHAQMVNFEALRPLAAEEARDAFVQGEDIVLSEENEFPTQVGDASGTPHLSVGCVRNDYGMPEQVQFWSVADNVRFGGALMAVKIAEKLVQEYLY | 5.37 ± 0.42 h | 4.6 ± 0.02 h | 4.6 ± 0.11 h | 4.9 ± 0.73 h | 4.57 ± 0.048 h | 3.02 ± 0.082 h | 9.85 ± 0.24 h | 5.14 ± 0.59 h | 8.99 ± 1.9 h | 6.16 ± 0.097 h | 11.9 ± 0.28 h | 5.614 ± 0.008 h
